# Measured values as given in US20030180282A1, “Method of treatment of thrombotic events” (priority 2002, published 2003).
# B1: t-PA: recombinant tissue plasminogen activator, thrombolytic agent (Genentech) (protein, UniProt P00750 36-562, looked up)
# Tissue-type plasminogen …: SYQVICRDEKTQMIYQQHQSWLRPVLRSNRVEYCWCNSGRAQCHSVPVKSCSEPRCFNGGTCQQALYFSDFVCQCPEGFAGKCCEIDTRATCYEDQGISYRGTWSTAESGAECTNWNSSALAQKPYSGRRPDAIRLGLGNHNYCRNPDRDSKPWCYVFKAGKYSSEFCSTPACSEGNSDCYFGNGSAYRGTHSLTESGASCLPWNSMILIGKVYTAQNPSAQALGLGKHNYCRNPDGDAKPWCHVLKNRRLTWEYCDVPSCSTCGLRQYSQPQFRIKGGLFADIASHPWQAAIFAKHRRSPGERFLCGGILISSCWILSAAHCFQERFPPHHLTVILGRTYRVVPGEEEQKFEVEKYIVHKEFDDDTYDNDIALLQLKSDSSRCAQESSVVRTVCLPPADLQLPDWTECELSGYGKHEALSPFYSERLKEAHVRLYPSSRCTSQHLLNRTVTDNMLCAGDTRSGGPQANLHDACQGDSGGPLVCLNDGRMTLVGIISWGLGCGQKDVPGVYTKVTNYLDWIRDNMRP
# Experiments:
# platelets [1] = assay: PFA-100 platelet function analyzer, closure time; format: cell-based, human; conditions: TNK 12 μg/mL, t-PA 4 μg/mL
# Description: (§1) Blood samples for the in vitro study were obtained from 9 healthy volunteers. None of the subjects smoked or had hypertension, diabetes, or an abnormal hematocrit. None had received aspirin or any other antiplatelet drugs. All subjects underwent blood sampling after at least 30 minutes of rest and 2 or more hours of fasting. Blood was drawn from an antecubital vein between 8 am and 10 am in order to avoid any diurnal influence. A 21-gauge butterfly needle was used to draw blood into a tube containing 3.8% sodium citrate (1:9 volume); the first 1.5 mL of free running blood was discarded. One tube was kept as an internal control. A second tube was incubated with tenecteplase (TNK) for 30 minutes at room temperature in order to achieve a final concentration of 12 μg/mL. The third tube was similarly incubated with alteplase (t-PA) to achieve a concentration of 4 μg/mL. The concentrations of TNK and t-PA that were chosen approximated conventional plasma levels observed in patients receiving TNK and t-PA bolus (30 mg, and 15 mg, respectively; data on file, Genentech, Inc., South San Francisco, Calif.). Fresh solutions of TNK and t-PA were prepared in Dulbecco's phosphate buffered saline (DPBS) ex tempore on the morning of the platelet studies.
# The PFA-100™ (Dade Behring, Deerfield, Ill.) is a high shear-inducing platelet function analyzer that simulates primary hemostasis after injury to a small vessel under flow conditions (see, e.g. Kundu, S. K. et al. (1996) Clin. Appl. Thromb. Hemost. 2:241-249). The device provides a constant negative pressure that aspirates a whole blood-citrate mixture, which comes into contact with a collagen-coated membrane and then passes through an aperture. The time required to obtain occlusion of the aperture is digitally recorded and is a measure of shear-induced platelet aggregation.
# For all comparisons, statistical analyses were done by using repeated measures ANOVA. […] Normally distributed data were expressed as mean±SE, and skewed data as median (range). […]
# platelets [2] = assay: rapid platelet-function assay (Ultegra); format: cell-based, human; conditions: TNK 12 μg/mL, t-PA 4 μg/mL
# Description: as §1
# With rapid platelet-function assay (RPFA (Ultegra®); Accumetrics, Inc., San Diego, Calif.), polystyrene beads coated with fibrinogen are placed in a cartridge along with a peptide that activates the thrombin receptor. A whole blood citrate mixture is added to the cartridge, and agglutination between platelets and coated beads is recorded. The data mirror turbidometric platelet aggregation and reflect the degree of platelet glycoprotein IIb/IIIa blockade.
# For all comparisons, statistical analyses were done by using repeated measures ANOVA. Post hoc comparison was performed by use of the Bonferroni t-test to identify specific differences in platelet aggregation and receptor expression between patients treated with TNK and t-PA, and controls. […] Normally distributed data were expressed as mean±SE, and skewed data as median (range). […]
# platelets [3] = assay: in vitro whole blood flow cytometry of platelet receptors and platelet-monocyte aggregates; format: cell-based, human; conditions: TNK 12 μg/mL, t-PA 4 μg/mL
# Description: as §1
# The surface expression of platelet receptors was determined by flow cytometry by using the following monoclonal antibodies: CD 41 (glycoprotein [GP] IIb/IIIa, α IIbβ3) CD 42b (GP Ib), CD 62p (P-selectin), CD 51/CD 61 (αvβ3, or vitronectin receptor), CD 31 (platelet endothelial cell adhesion molecule [PECAM]-1), CD 107a (LAMP-1), CD 107b (LAMP-2), CD 63 (LIMP or LAMP-3), and CD 151 (PETA-3) (PharMingen, San Diego, Calif.). Platelet-leukocyte interactions were assessed by using dual antibodies for a pan-platelet marker (CD 41), together with CD 14, a monocyte/macrophage marker. The blood-citrate mixture (50 μl) was diluted with 450 μl Tris buffered saline (TBS) (10 mmol/L Tris, 0.15 mol/L sodium chloride) and mixed by gently inverting an Eppendorf tube 2 times. The corresponding antibody was then added (5 μl) and incubated at 4° C. for 30 minutes. After incubation, 400 μl of 2% buffered paraformaldehyde was added for fixation. The samples were analyzed on a Becton Dickinson FACScan flow cytometer set up to measure fluorescent light scatter, as previously described. All parameters were collected by using 4-decade logarithmic amplification. The data were collected in list mode files and then analyzed. P-selectin was expressed as percent positive cells. Other antigens were expressed as log mean fluorescence intensity.
# (§2) For all comparisons, statistical analyses were done by using repeated measures ANOVA. Post hoc comparison was performed by use of the Bonferroni t-test to identify specific differences in platelet aggregation and receptor expression between patients treated with TNK and t-PA, and controls. The Mann-Whitney U test was used to analyze non-parametric data. Normally distributed data were expressed as mean±SE, and skewed data as median (range). Probability values of P<0.05 were regarded as statistically significant. Linear regression analysis was applied to normally distributed data for all study participants by using the Statview 4.1 program for analysis.
# [4] = system: platelet-derived biomarkers; assay: ASSENT-2 platelet substudy: ELISA of platelet-derived biomarkers in plasma of AMI patients; format: in vivo, human
# Description: Forty-one patients with ST-segment elevation AMI enrolled in a single ASSENT-2 site (Rashid Hospital, Dubai, United Arab Emirates) were studied. The inclusion and exclusion criteria of ASSENT-2 have been previously reported ([no authors listed] (1999) Lancet 354:716-722). Briefly, patients included in the trial were between 18 and 70 years of age and were seen within 6 hours of symptom onset with >30 minutes of continuous symptoms. […] After informed consent was obtained, 7 serum samples were drawn. Samples were collected at baseline and at 30-minute intervals during a 180-minute period. Within 15 minutes of sample acquisition, plasma was separated by centrifugation at 800 g for 10 minutes, aspirated, placed in vials, and snapped frozen at −20° C.
# Enzyme-linked immunosorbent assay (ELISA) was used according to standard sandwich techniques for CD 31 (sPECAM-1), sVACAM-1, sP-selectin, (R&D Systems Inc. Minneapolis, Minn.), beta-thromboglobulin, Asserachrom® (Diagnostica Stago Inc., Parsippany, N.J.), platelet factor 4 Asserachrom®, thromboxane, and prostacyclin (Cayman Chemical Co., MI). Each sample was measured in duplicate, and the overall intra-assay coefficient of variation was between 3.1%±0.4% and 7.6%±1.0%, with a plasma recovery rate between 89.7% and 98.7%.
# as §2
# In the ASSENT-2 Platelet Substudy, 21 of the 41 patients enrolled received TNK (30-50 mg), while the remaining 20 received t-PA (40-85 mg). There were no substantial differences in baseline characteristics for the AMI patients.
# [5] = "accelerated" regimen, GUSTO trial; cited from earlier work
molecule,measurement,setting,value
B1,closure time (PFA-100) compared with DPBS,platelets [1],prolongation
same,platelet activation units (Ultegra) compared with DPBS,platelets [2],reduction
same,expression of PECAM-1 compared with saline-treated samples,platelets [3],trend toward diminished expression
same,expression of glycoprotein IIb/IIIa compared with saline-treated samples,platelets [3],reduced expression
same,formation of platelet-monocyte aggregates compared with saline-treated samples,platelets [3],trend toward diminished
same,"P-selectin plasma concentrations, course",[4]; 180-minute period,increase steadily
same,plasma levels of PECAM-1,[4]; AMI patients after thrombolysis,not in t-PA-treated patients
same,release of substances from platelets (plasma biomarkers),"[4]; TNK 30-50 mg, t-PA 40-85 mg, 180-minute period",decreased release
same,vascular cell adhesion molecule-1 (VCAM-1) release,[4]; after 90 minutes,no marked changes
same,concentrations of α-granule constituents,[4]; to a lesser extent than TNK,Decreased concentrations
same,benefit in mortality reduction,[5],further benefit
